Source: the supplement of paper PMC9112550, “Optimization of the antimicrobial peptide Bac7 by deep mutational scanning” (BMC Biology, 2022)

Tested on: Escherichia coli TOP10
Experiment: shrunken log2 fold change of peptide-encoding DNA abundance (4.5 h post-induction vs induction); higher = less antimicrobial activity (less host growth inhibition)
Settings: time post-induction: 4.5 h; library: site-saturation at positions 5, 18, 19, 20
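Further: peptides expressed intracellularly from a pBAD plasmid library in pooled LB shake-flask culture, induced with 0.3% L-arabinose, DNA abundance read by NGS, three biological replicates, DESeq2 with apeglm shrinkage.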

| Sequence | shrunken log2 fold change |
| --- | --- |
| RRIRRRPPRLPRPRPRPYEHPRP | -0.0324 |
| RRIRVRPPRLPRPRPRPQTWPRP | -0.148 |
| RRIRLRPPRLPRPRPRPRTQPRP | 0.0772 |
| RRIRNRPPRLPRPRPRPFQMPRP | -0.673 |
| RRIRIRPPRLPRPRPRPLFTPRP | -0.374 |
| RRIRIRPPRLPRPRPRPVEHPRP | 0.0873 |
| RRIRHRPPRLPRPRPRPCFIPRP | -0.385 |
| RRIRSRPPRLPRPRPRPCKPPRP | -0.173 |
| RRIRYRPPRLPRPRPRPGPPPRP | 0.277 |
| RRIRCRPPRLPRPRPRPWMGPRP | 0.439 |
| RRIRSRPPRLPRPRPRPQMHPRP | -0.351 |
| RRIRWRPPRLPRPRPRPETEPRP | 0.411 |
| RRIRWRPPRLPRPRPRPHKLPRP | -0.135 |
| RRIRTRPPRLPRPRPRPIKIPRP | -0.426 |
| RRIRIRPPRLPRPRPRPLFWPRP | -0.145 |
| RRIRLRPPRLPRPRPRPVMWPRP | 0.283 |
| RRIRARPPRLPRPRPRPMWTPRP | 0.0207 |
| RRIRMRPPRLPRPRPRPSVFPRP | -0.0403 |
| RRIRFRPPRLPRPRPRPSMCPRP | -0.714 |
| RRIRRRPPRLPRPRPRPFLPPRP | 0.111 |
| RRIRKRPPRLPRPRPRPPIRPRP | -0.104 |
| RRIRVRPPRLPRPRPRPVTPPRP | 0.214 |
| RRIRGRPPRLPRPRPRPPPNPRP | 1.27 |
| RRIRRRPPRLPRPRPRPSGNPRP | 0.122 |
| RRIRKRPPRLPRPRPRPQRFPRP | -0.00315 |

| Sequence | shrunken log2 fold change |
| --- | --- |
| RRIRDRPPRLPRPRPRPVEMPRP | -0.0847 |
| RRIRDRPPRLPRPRPRPYNIPRP | -0.529 |
| RRIRVRPPRLPRPRPRPPYGPRP | 0.024 |
| RRIRFRPPRLPRPRPRPPHAPRP | 0.491 |
| RRIRWRPPRLPRPRPRPVSTPRP | 0.138 |
| RRIRSRPPRLPRPRPRPMIWPRP | 0.027 |
| RRIRYRPPRLPRPRPRPVFFPRP | -0.367 |
| RRIRARPPRLPRPRPRPPYFPRP | 0.314 |
| RRIRFRPPRLPRPRPRPSALPRP | 0.0201 |
| RRIRRRPPRLPRPRPRPSFNPRP | -0.192 |
| RRIRLRPPRLPRPRPRPSKVPRP | -0.117 |
| RRIRQRPPRLPRPRPRPYQNPRP | -0.816 |
| RRIRPRPPRLPRPRPRPWMCPRP | -0.366 |
| RRIRIRPPRLPRPRPRPVEEPRP | -0.0729 |
| RRIRTRPPRLPRPRPRPETQPRP | 0.205 |
| RRIRQRPPRLPRPRPRPRREPRP | 0.08 |
| RRIRRRPPRLPRPRPRPPVVPRP | 0.26 |
| RRIRARPPRLPRPRPRPFVWPRP | 0.204 |
| RRIRMRPPRLPRPRPRPYGVPRP | -0.147 |
| RRIRGRPPRLPRPRPRPGWNPRP | 0.486 |
| RRIRVRPPRLPRPRPRPRGVPRP | 0.278 |
| RRIRNRPPRLPRPRPRPAIGPRP | 0.0499 |
| RRIRMRPPRLPRPRPRPFDNPRP | 0.0191 |
| RRIRRRPPRLPRPRPRPHWKPRP | -0.00963 |
| RRIRVRPPRLPRPRPRPAPAPRP | 0.626 |

| Sequence | shrunken log2 fold change |
| --- | --- |
| RRIRWRPPRLPRPRPRPWEMPRP | -0.0156 |
| RRIRVRPPRLPRPRPRPGPCPRP | -0.128 |
| RRIRHRPPRLPRPRPRPISSPRP | -0.202 |
| RRIRTRPPRLPRPRPRPVRHPRP | -0.041 |
| RRIRKRPPRLPRPRPRPCSKPRP | -0.01 |
| RRIRERPPRLPRPRPRPSAPPRP | 0.18 |
| RRIRQRPPRLPRPRPRPEYHPRP | -0.141 |
| RRIRHRPPRLPRPRPRPVCSPRP | -0.168 |
| RRIRYRPPRLPRPRPRPQWRPRP | 0.0697 |
| RRIRKRPPRLPRPRPRPLLKPRP | 0.00409 |
| RRIRCRPPRLPRPRPRPGNLPRP | -0.167 |
| RRIRRRPPRLPRPRPRPASWPRP | 0.337 |
| RRIRPRPPRLPRPRPRPTCNPRP | -0.142 |
| RRIRPRPPRLPRPRPRPFIFPRP | 0.29 |
| RRIRSRPPRLPRPRPRPCKYPRP | -0.0911 |
| RRIRQRPPRLPRPRPRPCWPPRP | 0.193 |
| RRIRVRPPRLPRPRPRPWLGPRP | -0.0696 |
| RRIRDRPPRLPRPRPRPQRLPRP | 0.116 |
| RRIRARPPRLPRPRPRPERLPRP | 0.23 |
| RRIRHRPPRLPRPRPRPNIGPRP | -0.431 |
| RRIRSRPPRLPRPRPRPLPKPRP | 0.493 |
| RRIRERPPRLPRPRPRPKIYPRP | -0.165 |
| RRIRYRPPRLPRPRPRPGCAPRP | -0.139 |
| RRIRLRPPRLPRPRPRPGSIPRP | -0.301 |
| RRIRDRPPRLPRPRPRPQQKPRP | -0.14 |

| Sequence | shrunken log2 fold change |
| --- | --- |
| RRIRHRPPRLPRPRPRPTVWPRP | 0.123 |
| RRIRMRPPRLPRPRPRPNTSPRP | -0.0142 |
| RRIRIRPPRLPRPRPRPDAGPRP | 0.158 |
| RRIRMRPPRLPRPRPRPIDHPRP | 0.0383 |
| RRIRARPPRLPRPRPRPSGYPRP | 0.094 |
| RRIRQRPPRLPRPRPRPFAIPRP | 0.00479 |
| RRIRRRPPRLPRPRPRPPCHPRP | 0.761 |
| RRIRWRPPRLPRPRPRPDTSPRP | 0.0558 |
| RRIRIRPPRLPRPRPRPHDTPRP | -0.548 |
| RRIRIRPPRLPRPRPRPGPNPRP | -0.113 |
| RRIRIRPPRLPRPRPRPIRKPRP | -0.0303 |
| RRIRTRPPRLPRPRPRPPLKPRP | -0.0323 |
| RRIRWRPPRLPRPRPRPFTMPRP | -0.36 |
| RRIRYRPPRLPRPRPRPITGPRP | 0.0176 |
| RRIRFRPPRLPRPRPRPFMSPRP | -0.0532 |
| RRIRMRPPRLPRPRPRPNEIPRP | 0.0871 |
| RRIRKRPPRLPRPRPRPPVNPRP | 0.04 |
| RRIRFRPPRLPRPRPRPVCNPRP | -0.0727 |
| RRIRQRPPRLPRPRPRPVVNPRP | -0.126 |
| RRIRGRPPRLPRPRPRPNFWPRP | 0.544 |
| RRIRLRPPRLPRPRPRPTPQPRP | 0.594 |
| RRIRIRPPRLPRPRPRPIMGPRP | -0.08 |
| RRIRSRPPRLPRPRPRPDWSPRP | 0.276 |
| RRIRARPPRLPRPRPRPQMHPRP | 1.05 |
| RRIRMRPPRLPRPRPRPRQHPRP | 0.47 |

| Sequence | shrunken log2 fold change |
| --- | --- |
| RRIRNRPPRLPRPRPRPFGDPRP | 0.0215 |
| RRIRIRPPRLPRPRPRPHKEPRP | 0.0692 |
| RRIRVRPPRLPRPRPRPTGDPRP | -0.0504 |
| RRIRVRPPRLPRPRPRPKQDPRP | -0.266 |
| RRIRIRPPRLPRPRPRPKFGPRP | 0.0227 |
| RRIRGRPPRLPRPRPRPALEPRP | 1.11 |
| RRIRFRPPRLPRPRPRPDLRPRP | -0.108 |
| RRIRFRPPRLPRPRPRPRWDPRP | 0.284 |
| RRIRCRPPRLPRPRPRPYICPRP | -0.419 |
| RRIRPRPPRLPRPRPRPYSWPRP | -0.046 |
| RRIRGRPPRLPRPRPRPQMTPRP | 2.33 |
| RRIRDRPPRLPRPRPRPYCPPRP | -1.1 |
| RRIRYRPPRLPRPRPRPNVLPRP | -0.554 |
| RRIRGRPPRLPRPRPRPVNIPRP | 0.145 |
| RRIRMRPPRLPRPRPRPHYRPRP | -0.223 |
| RRIRWRPPRLPRPRPRPNWEPRP | -0.00663 |
| RRIRFRPPRLPRPRPRPDYDPRP | -0.0802 |
| RRIRFRPPRLPRPRPRPLLQPRP | 0.0394 |
| RRIRFRPPRLPRPRPRPKSCPRP | 0.0245 |
| RRIRVRPPRLPRPRPRPIGAPRP | 0.255 |
| RRIRRRPPRLPRPRPRPDDDPRP | 0.129 |
| RRIRERPPRLPRPRPRPRRCPRP | 0.0702 |
| RRIRRRPPRLPRPRPRPDYPPRP | 0.0596 |
| RRIRFRPPRLPRPRPRPMCFPRP | -0.256 |
| RRIRCRPPRLPRPRPRPSFMPRP | -0.688 |
